Measured values from the supplement of paper PMC10567573.

Assay: protein stability index of a GFP-peptide fusion (GPS, HEK-293T) (PSI 1-6); higher = more stable
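Note: lentivirally expressed fusions sorted by FACS into six bins by GFP to DsRed ratio, PSI derived from sequencing read proportions per bin multiplied by bin number.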

WTMQAYERNFWDPSPQLDTQQEIK showed a protein stability index (parent: IOH25728_43, c terminus: a fixed tail appended) of 2.62.

VTEDLRLKDWEHSIALRNISLAKG [SCARA5 WT] gave a protein stability index (parent: IOH23227_48, c terminus: a fixed tail appended) of 3.31.

For STTEGIQLAKELGATYLELHSLDD, the protein stability index (parent: IOH25836_27, c terminus: a fixed tail appended) was 3.48.

Protein DSCCPAGIFQAMCLLICAEMYQVS has a protein stability index (parent: IOH25836_81, c terminus: a fixed tail appended) of 3.09.

Work on SFMPLVIKVTSATSVNLGILTADL yielded a protein stability index (parent: IOH25755_47, c terminus: a fixed tail appended) of 2.79.

In the case of YSSSKGSLRLCDMRAAALCDKHSK [PPP2R2C WT], the protein stability index (parent: IOH22415_38, c terminus: a fixed tail appended) is reported as 1.74.

For QYLAERYKVNTPMLQSFINYCLLF, the protein stability index (parent: IOH25755_11, c terminus: a fixed tail appended) was 2.35.

GGADIIVIKYNVNDKFSFHEVKDN gave a protein stability index (parent: IOH25836_16, c terminus: a fixed tail appended) of 2.19.

In the case of YHEAPMTRKHYQVTGYGINGTGDS, the protein stability index (parent: IOH22744_72, c terminus: a fixed tail appended) is reported as 2.29.

For PSRVHASEVESAVWYVKKFGRYLE, the protein stability index (parent: IOH22759_12, c terminus: a fixed tail appended) was 2.26.

For VRSRLEEAGIKVHDVRLNGSAAGH, the protein stability index (parent: IOH22484_10, c terminus: a fixed tail appended) was 2.22.

With FDHLQNRLIATKNPEEIRGGGLLK the protein stability index (parent: IOH22484_38, c terminus: a fixed tail appended) was 3.8.

Work on KVVEAHKIVLCAVSHVFMLLFNVK yielded a protein stability index (parent: IOH25836_45, c terminus: a fixed tail appended) of 2.49.

Protein VKYNSCADRPFSAPWWFWLSLTGV has a protein stability index (parent: IOH22744_36, c terminus: a fixed tail appended) of 2.7.

For LARKGSLKNGSMGSPVNQQPKKNN [C9orf25 WT], the protein stability index (parent: IOH25834_6, c terminus: a fixed tail appended) was 4.65.

For VSHVFMLLFNVKSPTDIQDSSIIR, the protein stability index (parent: IOH25836_47, c terminus: a fixed tail appended) was 2.27.

Work on HHHHGRDFLLRAASFDVCESVDEA yielded a protein stability index (parent: IOH23244_56, c terminus: a fixed tail appended) of 3.72.

LYTGELDENERDLMHIAHIAELLE gave a protein stability index (parent: IOH23244_73, c terminus: a fixed tail appended) of 2.54.

VLRSRIRFIHLVTGCVLGSSGKVL gave a protein stability index (parent: IOH22744_79, c terminus: a fixed tail appended) of 2.76.

In the case of LRGGGQVLLGWTLHYFPFFLMGRV, the protein stability index (parent: IOH22744_107, c terminus: a fixed tail appended) is reported as 2.33.

For GEGTGSPPKWQIGEQEFEALMRML [ADD1 WT], the protein stability index (parent: IOH25868_61, c terminus: a fixed tail appended) was 3.11.

Protein QLQSMPSRELASMNLDIVDLLKKA has a protein stability index (parent: IOH25836_87, c terminus: a fixed tail appended) of 3.28.

In the case of NQEITKAFHVRRTNRVKECLAKGT, the protein stability index (parent: IOH23244_80, c terminus: a fixed tail appended) is reported as 3.11.

Protein DWRKNIEEKSGMEGRKKMFESES [TNNI2 WT] has a protein stability index (parent: IOH23107_29, c terminus: native) of 2.45.

HVGELIIWDALDWTMQAYERNFWD gave a protein stability index (parent: IOH25728_41, c terminus: a fixed tail appended) of 2.32.

With FVAFALCMFCLYSFMPLVIKVTSA the protein stability index (parent: IOH25755_45, c terminus: a fixed tail appended) was 2.87.

Protein RVFKARIYTNRYETNEEDKTLQEI has a protein stability index (parent: IOH22759_67, c terminus: a fixed tail appended) of 2.51.
